Literature values, collected in patent publication US5770691A, “Discriminatory substrates for MMP hydrolysis” (Regents of the University of Minnesota, priority 1995, dated 1998).
Like-named read-outs stand apart in the source and are kept apart here. [ ]: non-standard residue; d: D form. The star is where a group is joined. Dnp = O=[N+]([O-])c1ccc(*)c([N+](=O)[O-])c1; Nva = CCC[C@H](N)C(=O)O

How the values were obtained:
MMP-3 [1] = target: T1, MMP-3 (Homo sapiens, UniProt P08254); settings: MMP-3 cleavage, cited from earlier work
MMP-3 [2] = target: T1, MMP-3; settings: cited from earlier work

T1 sequence (P08254 100-477, species assumed): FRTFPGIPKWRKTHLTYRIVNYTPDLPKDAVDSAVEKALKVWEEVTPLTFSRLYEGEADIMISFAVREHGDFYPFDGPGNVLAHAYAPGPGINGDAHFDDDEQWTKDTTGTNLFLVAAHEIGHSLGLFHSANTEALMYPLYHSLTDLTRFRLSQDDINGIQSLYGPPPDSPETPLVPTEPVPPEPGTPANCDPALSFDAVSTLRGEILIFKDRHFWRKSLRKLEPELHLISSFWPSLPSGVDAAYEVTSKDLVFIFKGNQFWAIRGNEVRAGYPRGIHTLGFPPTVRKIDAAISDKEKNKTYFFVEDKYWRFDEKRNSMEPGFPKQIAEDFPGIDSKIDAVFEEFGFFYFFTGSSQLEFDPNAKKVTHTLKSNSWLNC

Q: With Antithrombin III as the substance, how does the “kcat /Kb” value (MMP-3 [1]; determined at 37° C.) read?
A: < 50 S^-1 M^-1

Q: Which “kcat /Kb” value (MMP-3 [1]; determined at 37° C.) does the source give for “α1 -Protease inhibitor: protease inhibitor cleaved by MMP-3 at Pro357-Met358” here?
A: 5,400 S^-1 M^-1

Q: For “Dnp-Arg-Pro-Lys-Pro-Leu-Ala-Nva-Trp-NH2 (Dnp-RPKPLA[Nva]W-NH2; SMILES CCC[C@H](NC(=O)[C@H](C)NC(=O)[C@H](CC(C)C)NC(=O)[C@@H]1CCCN1C(=O)[C@H](CCCCN)NC(=O)[C@@H]1CCCN1C(=O)[C@H](CCCNC(=N)N)Nc1ccc([N+](=O)[O-])cc1[N+](=O)[O-])C(=O)N[C@@H](Cc1c[nH]c2ccccc12)C(N)=O) [literature fluorogenic MMP-3 substrate (Niedzwiecki et al., 1992)]”, which “kcat Km” value (MMP-3 [2]; MMP-3, assay at 25° C.) is on record?
A: 45,000 S^-1 M^-1

Q: Which Km (MMP-3 [2]; MMP-3, assay at 30° C.) does the source give for “Gly--Pro--Gln--Gly"--"Ile--Ala--Met--Gln (chain 1 GPQG; chain 2 IAMQ; printed: Gly--Pro--Gln--Gly; printed: Ile--Ala--Met--Gln) [literature synthetic MMP-3 substrate (Fields, 1988)]” here?
A: 5600 µM

Q: What about the kcat (MMP-3 [2]; MMP-3, assay at 30° C.) of the same substance?
A: 0.69 S^-1

Q: And the “kcat Km” value (MMP-3 [2]; MMP-3, assay at 30° C.)?
A: 120 S^-1 M^-1

Q: With “Dnp--Pro--Tyr--Ala"--"Tyr--Trp--Met--Arg--NH3 (Dnp-PYAYWMR-NH2; not fully specified; printed as Dnp—Pro—Tyr—Ala"—"Tyr—Trp—Met—Arg—NH$_3$) [literature fluorogenic substrate (Netzel-Arnett et al., 1991)]” as the substance, how does the kcat (MMP-3 [2]; MMP-3, assay at 23° C.) read?
A: 0.24 S^-1

Q: What about the Km (MMP-3 [2]; MMP-3, assay at 30° C.) of the same substance?
A: 100 µM

Q: And the “kcat Km” value (MMP-3 [2]; MMP-3, assay at 37° C.)?
A: 2,400 S^-1 M^-1

Q: With “Substance P: 11 residue peptide substrate of MMP-3, cleaved at Gln6-Phe7 [reference compound]” as the substance, how does the “kcat /Kb” value (MMP-3 [1]; determined at 37° C.) read?
A: 1,790 S^-1 M^-1

Q: For “Human aggrecan: extracellular matrix protein cleaved by MMP-3 at Asn341-Phe342”, which “kcat /Kb” value (MMP-3 [1]; determined at 22° C.) is on record?
A: 4,000 S^-1 M^-1

Q: Which “kcat /Kb” value (MMP-3 [1]; determined at 25° C.) does the source give for “Human α2 -macroglobulin: protein substrate of MMP-3; cleavage sites Gly679-Leu680 and Phe684-Tyr685” here?
A: 56,000 S^-1 M^-1
